Some targets named below: CHK2(I157T)(h) (human, UniProt O96017 5-543, limits assumed); CK1γ3(h) (human, UniProt Q9Y6M4 1-447); CHK2(R145W)(h) (human, UniProt O96017 5-543, limits assumed); BTK(R28H)(h) (human, UniProt Q06187 1-659).
What all share (assay): cell-based or functional assay
The target of a further test is T1, BrSK1(h) (human, UniProt Q8TDC3 1-778, limits assumed).
T1 sequence (looked up): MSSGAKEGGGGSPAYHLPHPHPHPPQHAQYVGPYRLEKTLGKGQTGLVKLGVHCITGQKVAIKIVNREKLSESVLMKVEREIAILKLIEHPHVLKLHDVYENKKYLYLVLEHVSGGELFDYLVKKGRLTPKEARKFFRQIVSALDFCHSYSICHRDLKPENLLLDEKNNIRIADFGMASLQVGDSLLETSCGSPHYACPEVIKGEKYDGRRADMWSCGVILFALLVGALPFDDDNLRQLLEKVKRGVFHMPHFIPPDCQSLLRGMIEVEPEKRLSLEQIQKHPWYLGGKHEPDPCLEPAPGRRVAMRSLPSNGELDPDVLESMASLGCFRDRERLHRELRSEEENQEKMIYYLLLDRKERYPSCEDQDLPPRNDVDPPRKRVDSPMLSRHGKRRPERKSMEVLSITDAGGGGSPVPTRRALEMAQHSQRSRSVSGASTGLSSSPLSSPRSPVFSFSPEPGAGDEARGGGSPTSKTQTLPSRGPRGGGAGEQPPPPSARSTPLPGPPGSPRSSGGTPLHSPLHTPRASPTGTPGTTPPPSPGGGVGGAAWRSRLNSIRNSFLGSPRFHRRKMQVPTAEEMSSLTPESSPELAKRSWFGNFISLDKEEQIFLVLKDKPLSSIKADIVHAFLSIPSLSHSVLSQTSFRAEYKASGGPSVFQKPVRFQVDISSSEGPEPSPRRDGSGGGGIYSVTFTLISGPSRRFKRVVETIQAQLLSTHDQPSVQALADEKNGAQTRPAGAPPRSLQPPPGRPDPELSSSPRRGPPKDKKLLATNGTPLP

In a further test the target is T2, Flt1(h) (human, UniProt P17948 781-1338, limits assumed).
T2 sequence (looked up): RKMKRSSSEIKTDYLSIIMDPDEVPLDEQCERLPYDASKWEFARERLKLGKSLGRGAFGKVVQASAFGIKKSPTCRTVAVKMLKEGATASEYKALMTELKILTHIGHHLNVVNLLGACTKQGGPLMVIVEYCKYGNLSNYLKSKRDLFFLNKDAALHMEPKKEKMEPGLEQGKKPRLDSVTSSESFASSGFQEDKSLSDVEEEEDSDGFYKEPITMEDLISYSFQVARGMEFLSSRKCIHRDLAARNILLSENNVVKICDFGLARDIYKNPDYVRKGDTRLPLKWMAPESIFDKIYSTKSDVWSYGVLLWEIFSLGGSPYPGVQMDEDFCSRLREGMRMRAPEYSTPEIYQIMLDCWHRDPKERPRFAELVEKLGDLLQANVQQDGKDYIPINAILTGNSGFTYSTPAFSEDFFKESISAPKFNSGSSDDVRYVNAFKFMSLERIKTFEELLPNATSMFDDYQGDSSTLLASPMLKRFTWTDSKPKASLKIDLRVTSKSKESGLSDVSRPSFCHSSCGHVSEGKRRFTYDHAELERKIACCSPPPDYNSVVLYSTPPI

The target in another test is T3, ALK4(h) (human, UniProt P36896 150-505, limits assumed).
T3 sequence (looked up): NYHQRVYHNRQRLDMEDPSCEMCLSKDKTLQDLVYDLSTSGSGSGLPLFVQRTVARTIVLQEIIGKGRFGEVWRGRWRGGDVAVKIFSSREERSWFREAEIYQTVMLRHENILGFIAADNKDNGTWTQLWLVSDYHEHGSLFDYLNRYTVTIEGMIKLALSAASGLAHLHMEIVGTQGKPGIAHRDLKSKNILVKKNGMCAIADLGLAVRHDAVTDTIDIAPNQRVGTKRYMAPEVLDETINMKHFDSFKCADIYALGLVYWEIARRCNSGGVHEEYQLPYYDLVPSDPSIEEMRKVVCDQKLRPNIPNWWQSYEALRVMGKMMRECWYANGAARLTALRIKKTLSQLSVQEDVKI

Another test concerns the target T4, TSSK1(h) (human, UniProt Q9BXA7 1-367).
T4 sequence (looked up): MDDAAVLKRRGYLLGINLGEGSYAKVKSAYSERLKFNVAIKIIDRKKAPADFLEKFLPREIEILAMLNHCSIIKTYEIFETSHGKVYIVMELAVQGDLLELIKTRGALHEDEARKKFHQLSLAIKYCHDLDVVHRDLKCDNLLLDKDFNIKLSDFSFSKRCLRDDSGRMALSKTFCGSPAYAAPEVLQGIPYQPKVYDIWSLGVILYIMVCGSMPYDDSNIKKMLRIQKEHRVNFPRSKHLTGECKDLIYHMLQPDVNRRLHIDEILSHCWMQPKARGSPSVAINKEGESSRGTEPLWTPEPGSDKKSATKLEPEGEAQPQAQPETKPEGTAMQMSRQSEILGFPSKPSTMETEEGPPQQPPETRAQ

We go through two molecules from patent US20140072613A1 (published 2014).

Sequence of CHK2(R145W)(h) (O96017 5-543 R145W limits assumed): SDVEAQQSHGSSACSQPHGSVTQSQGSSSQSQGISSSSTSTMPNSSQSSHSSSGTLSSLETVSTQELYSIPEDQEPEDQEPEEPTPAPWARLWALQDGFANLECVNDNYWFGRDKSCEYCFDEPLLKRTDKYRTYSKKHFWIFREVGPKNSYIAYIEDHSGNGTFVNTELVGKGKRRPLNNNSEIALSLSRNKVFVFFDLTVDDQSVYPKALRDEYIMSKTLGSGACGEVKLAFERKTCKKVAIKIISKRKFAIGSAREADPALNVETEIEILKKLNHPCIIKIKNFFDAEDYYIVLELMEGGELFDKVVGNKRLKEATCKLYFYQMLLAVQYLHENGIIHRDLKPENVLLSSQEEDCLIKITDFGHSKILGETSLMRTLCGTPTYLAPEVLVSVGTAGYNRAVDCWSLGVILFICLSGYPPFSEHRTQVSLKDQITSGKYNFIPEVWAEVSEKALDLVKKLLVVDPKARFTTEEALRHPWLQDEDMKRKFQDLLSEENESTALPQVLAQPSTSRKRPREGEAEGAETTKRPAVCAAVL
Sequence of CK1γ3(h) (Q9Y6M4 whole entry): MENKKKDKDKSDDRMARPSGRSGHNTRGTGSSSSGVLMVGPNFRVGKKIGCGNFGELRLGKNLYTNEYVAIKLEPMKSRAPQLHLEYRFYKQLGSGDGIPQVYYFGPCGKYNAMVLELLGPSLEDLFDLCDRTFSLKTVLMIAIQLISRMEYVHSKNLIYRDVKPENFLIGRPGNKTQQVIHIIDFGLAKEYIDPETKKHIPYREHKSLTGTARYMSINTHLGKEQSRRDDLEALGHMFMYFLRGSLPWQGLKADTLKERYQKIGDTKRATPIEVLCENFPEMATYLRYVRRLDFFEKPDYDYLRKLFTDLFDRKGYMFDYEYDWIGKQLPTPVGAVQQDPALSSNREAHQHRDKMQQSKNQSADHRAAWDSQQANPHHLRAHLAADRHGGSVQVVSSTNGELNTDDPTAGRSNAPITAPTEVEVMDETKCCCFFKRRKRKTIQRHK
Sequence of CHK2(I157T)(h) (O96017 5-543 I157T limits assumed): as the sequence (O96017 5-543 R145W limits assumed) above, with W141R, I153T counted along it
Sequence of BTK(R28H)(h) (Q06187 whole entry R28H): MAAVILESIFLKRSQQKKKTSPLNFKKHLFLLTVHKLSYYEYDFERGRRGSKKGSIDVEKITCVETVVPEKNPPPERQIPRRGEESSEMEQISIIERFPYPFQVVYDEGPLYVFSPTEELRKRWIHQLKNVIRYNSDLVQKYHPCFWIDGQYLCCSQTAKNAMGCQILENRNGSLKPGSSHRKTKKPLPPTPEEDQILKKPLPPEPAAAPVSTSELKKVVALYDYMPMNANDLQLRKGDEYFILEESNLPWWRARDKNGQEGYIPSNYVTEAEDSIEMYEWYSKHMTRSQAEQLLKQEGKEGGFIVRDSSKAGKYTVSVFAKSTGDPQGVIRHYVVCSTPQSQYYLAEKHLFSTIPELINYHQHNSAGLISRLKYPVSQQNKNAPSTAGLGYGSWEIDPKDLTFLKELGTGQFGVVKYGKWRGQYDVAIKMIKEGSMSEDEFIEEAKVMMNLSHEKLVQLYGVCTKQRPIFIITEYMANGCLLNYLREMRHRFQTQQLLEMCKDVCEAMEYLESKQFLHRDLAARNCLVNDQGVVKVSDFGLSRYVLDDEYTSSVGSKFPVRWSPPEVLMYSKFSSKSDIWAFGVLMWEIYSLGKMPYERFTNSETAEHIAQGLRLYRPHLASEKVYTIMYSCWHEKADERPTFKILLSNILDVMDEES

B1: MMI-0400 (peptide)
peptide: KAFAKLAARLYRKALARQLGVAA
Consider B1, for which the “% activity, 100 µM” value in the test with BrSK1(h) was 76%; with Flt1(h), 48%; with CHK2(I157T)(h), 41%; with ALK4(h) it was 130%; in the test with CK1γ3(h), 115%; with TSSK1(h), 79%. In addition, the results for the “% activity, 100 µM” value with CHK2(R145W)(h) and in the test with BTK(R28H)(h) were 31% and 24%, respectively.

B2: MMI-0300 (peptide)
peptide: FAKLAARLYRKALARQLGVAA
Turning to B2, the “% activity, 100 µM” value with BrSK1(h) was found to be 67%; with Flt1(h), 69%; with CHK2(I157T)(h), 43%; with ALK4(h) it was 140%; in the test with CK1γ3(h), 125%; with TSSK1(h) it was 79%. In addition, the “% activity, 100 µM” value with CHK2(R145W)(h) stood at 33%; with BTK(R28H)(h), 74%.
